The binders below were run against 6xHis-SUMO-CXCR2(NTD) (human) (UniProt P25025) (assay: BLI (Octet R4), His-tagged SUMO-CXCR2(NTD) on HIS1K biosensor, IgG as analyte, 1:1 model).
Sequence of UniProt P25025 (P25025 1-48): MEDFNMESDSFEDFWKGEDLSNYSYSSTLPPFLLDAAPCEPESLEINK

Row | Kd [nM] | Binder
1 | 8.9 | IgG_18 (antibody, part only; not given: VL CDR2; constant regions, V domains shown, part only) VH: EVQLLESGGGLVQPGGSLRLSCAASGFTFSNYAMSWVRQAPGKGLEWVSSISPSGSSKYYADSVKGRFTISRDNSKNTLYLQMNSLRAEDTAVYYCAKHNRHFDYWGQGTLVTVSS VL, part: QSVLTQPPSASGTPGQRVTISCTGSSSNIGSHYVSWYQQLPGTAPKLLIYHRPSGVPDRFSGSKSGTSASLAISGLRSEDEADYYCGSWDDSLNAYVFGGGTKLTVL
2 | 250 | IgG_54 (antibody, part only; not given: VL CDR2; constant regions, V domains shown, part only) VH: EVQLLESGEGLVQPGGSLRLSCAASGFTFSNYSMSWVRQAPGKGLEWVSGISSGGGSKYYADSVKGRFTISRDNSKNTLYLQMNSLRAEDTAVYYCARQATAFDYWGQGTLVTVSS VL, part: QSVLTQPPSASGTPGQRVTISCTGSSSNIGNNSVTWYQQLPGTAPKLLIYNRPSGVPDRFSGSKSGTSASLAISGLRSEDEADYYCGTWDDSLSAYVFCGGTKLTVL
3 | 5.6 | IgG_56 (antibody, part only; not given: VL CDR2; constant regions, V domains shown, part only) VH: EVQLLESGGGLVQPGGSLRLSCAASGFTFSGYPMSWVRQAPGKGLEWVSSISSSGGNTYYADSVKGRFTISRDNSKNTLYLQMNSLRAEDTAVYYCARFGIHHPDRALYYANAMDVWGQGTLVTVSS VL, part: QSVLTQPPSASGTPGQRVTISCSGSSSNIGNNDVNWYQQLPGTAPKLLIYQRPSGVPDRFSGSKSGTSASLAISGLRSEDEADYYCATWDASLSAYVFGGGTKLTVL

From EP4700046A1
